Substitutions are numbered along the chain they refer to. *1 amine or outer side, *2 acyl side, *3 side chain or, on linkers, in order; H or OH if unused. Where no end group is shown, it is not given here. Side-chain parts run from the residue outwards. [ ]: non-standard residue; d: D form. The star is where a group is joined. Decanoyl(10-(4-HOOC-PhO)) = O=C(O)c1ccc(OCCCCCCCCCC(=O)*)cc1; αMePhe(2-F) = C[C@](N)(Cc1ccccc1F)C(=O)O; γGlu = O=C(O)[C@H](CCC(=O)[*:2])N[*:1]; C14 diacid = O=C(O)CCCCCCCCCCCCC(=O)*; αMeY = C[C@](N)(Cc1ccc(O)cc1)C(=O)O; αMeL = CC(C)C[C@](C)(N)C(=O)O; Nle = CCCC[C@H](N)C(=O)O; Orn = NCCC[C@H](N)C(=O)O; AEEA = NCCOCCOCC(=O)O; Aib = CC(C)(N)C(=O)O
B1: Example 333 (peptide)
peptide: Y[Aib]EGT[αMePhe(2-F)]TSD[Nle]SI[αMeL]LD[Orn]IAQ[Aib]K([AEEA-AEEA-γGlu-Decanoyl(10-(4-HOOC-PhO))])FI[dE][αMeY]LIK([AEEA-AEEA-γGlu-Decanoyl(10-(4-HOOC-PhO))])GGPSSGAPPPS-NH2
modifications: N-terminus assumed
SMILES: CCCC[C@H](NC(=O)[C@H](CC(=O)O)NC(=O)[C@H](CO)NC(=O)[C@@H](NC(=O)[C@](C)(Cc1ccccc1F)NC(=O)[C@@H](NC(=O)CNC(=O)[C@H](CCC(=O)O)NC(=O)C(C)(C)NC(=O)[C@@H](N)Cc1ccc(O)cc1)[C@@H](C)O)[C@@H](C)O)C(=O)N[C@@H](CO)C(=O)N[C@H](C(=O)N[C@@](C)(CC(C)C)C(=O)N[C@@H](CC(C)C)C(=O)N[C@@H](CC(=O)O)C(=O)N[C@@H](CCCN)C(=O)N[C@H](C(=O)N[C@@H](C)C(=O)N[C@@H](CCC(N)=O)C(=O)NC(C)(C)C(=O)N[C@@H](CCCCNC(=O)COCCOCCNC(=O)COCCOCCNC(=O)CC[C@H](NC(=O)CCCCCCCCCOc1ccc(C(=O)O)cc1)C(=O)O)C(=O)N[C@@H](Cc1ccccc1)C(=O)N[C@H](C(=O)N[C@H](CCC(=O)O)C(=O)N[C@@](C)(Cc1ccc(O)cc1)C(=O)N[C@@H](CC(C)C)C(=O)N[C@H](C(=O)N[C@@H](CCCCNC(=O)COCCOCCNC(=O)COCCOCCNC(=O)CC[C@H](NC(=O)CCCCCCCCCOc1ccc(C(=O)O)cc1)C(=O)O)C(=O)NCC(=O)NCC(=O)N1CCC[C@H]1C(=O)N[C@@H](CO)C(=O)N[C@@H](CO)C(=O)NCC(=O)N[C@@H](C)C(=O)N1CCC[C@H]1C(=O)N1CCC[C@H]1C(=O)N1CCC[C@H]1C(=O)N[C@@H](CO)C(N)=O)[C@@H](C)CC)[C@@H](C)CC)[C@@H](C)CC)[C@@H](C)CC
B2: Example 291 (peptide)
peptide: YXEGTXTSDXSIXLDXKAQXEFIXXLIEGGPSSGAPPPSK
modifications: Y-Aib-EGT-αMeF(2F)-TSD-OMeY-SI-αMeL-LD-Orn-K((2-[2-(2-Amino-ethoxy)-ethoxy]-acetyl)2-(γ-Glu)-CO-(CH2)10-CH3)AQ-Aib-EFI-(D-Glu)-αMeY-LIEGGPSSGAPPPSK((2-[2-(2-Amino-ethoxy)-ethoxy]-acetyl)2-(γ-Glu)-CO-(CH2)10-CH3)-NH2
B3: Example 317 (peptide)
peptide: Y[Aib]EGT[αMePhe(2-F)]TSDV[Aib]I[αMeL]LD[Orn]IAQ[Aib][Orn]FIK([AEEA-AEEA-γGlu-C14 diacid])[αMeY]LIK([AEEA-AEEA-γGlu-C14 diacid])GGPSSGAPPPS-NH2
B4: Example 292 (peptide)
peptide: YXEGTXTSDKXIXLDXKAQXEFIXXLIEGGPSSGAPPPS
modifications: Y-Aib-EGT-αMeF(2F)-TSDK((2-[2-(2-Amino-ethoxy)-ethoxy]-acetyl)2-(γ-Glu)-CO-(CH2)10-CH3)-Aib-I-αMeL-LD-Orn-K((2-[2-(2-Amino-ethoxy)-ethoxy]-acetyl)2-(γ-Glu)-CO-(CH2)10-CH3)AQ-Aib-EFI-(D-Glu)-αMeY-LIEGGPSSGAPPPS-NH2
B5: Example 342 (peptide)
peptide: B4 peptide with K10X, K17I, X24K, E28K
modifications: Y-Aib-EGT-αMeF(2F)-TSD-4Pal-Aib-I-αMeL-LD-Orn-IAQ-Aib-EFIK((2-[2-(2-Amino-ethoxy)-ethoxy]-acetyl)3-(γ-Glu)-CO-(CH2)12-CO2H)-αMeY-LIK((2-[2-(2-Amino-ethoxy)-ethoxy]-acetyl)3-(γ-Glu)-CO-(CH2)12-CO2H)GGPSSGAPPPS-NH2
B6: Example 323 (peptide)
peptide: B4 peptide with K10X, X11S, E21K
modifications: Y-Aib-EGT-αMeF(2F)-TSD-hTyr-SI-αMeL-LD-Orn-K((2-[2-(2-Amino-ethoxy)-ethoxy]-acetyl)2-(γ-Glu)-CO-(CH2)10-CH3)AQ-Aib-K((2-[2-(2-Amino-ethoxy)-ethoxy]-acetyl)2-(γ-Glu)-CO-(CH2)10-CH3)FI-(D-Glu)-αMeY-LIEGGPSSGAPPPS-NH2
B7: Example 343 (peptide)
peptide: B4 peptide with K10Y, K17I, X24K, E28K
modifications: Y-Aib-EGT-αMeF(2F)-TSDY-Aib-I-αMeL-LD-Orn-IAQ-Aib-EFIK((2-[2-(2-Amino-ethoxy)-ethoxy]-acetyl)3-(γ-Glu)-CO-(CH2)12-CO2H)-αMeY-LIK((2-[2-(2-Amino-ethoxy)-ethoxy]-acetyl)3-(γ-Glu)-CO-(CH2)12-CO2H)GGPSSGAPPPS-NH2
B8: Example 321 (peptide)
peptide: B4 peptide with K10X, X11S, E21K
modifications: Y-Aib-EGT-αMeF(2F)-TSD-Nle-SI-αMeL-LD-Orn-K((2-[2-(2-Amino-ethoxy)-ethoxy]-acetyl)2-(γ-Glu)-(10-(4-carboxyphenoxy)decanoyl))AQ-Aib-K((2-[2-(2-Amino-ethoxy)-ethoxy]-acetyl)2-(γ-Glu)-(10-(4-carboxyphenoxy)decanoyl))FI-(D-Glu)-αMeY-LIEGGPSSGAPPPS-NH2
B9: Example 312 (peptide)
peptide: B4 peptide with K10Y, K17I, X24K, E28K
modifications: Y-Aib-EGT-αMeF(2F)-TSDY-Aib-I-αMeL-LD-Orn-IAQ-Aib-EFIK(2-[2-(2-Amino-ethoxy)-ethoxy]-acetyl)2-(γ-Glu)-(11-(4-carboxyphenoxy)undecanoyl)-αMeY-LIK((2-[2-(2-Amino-ethoxy)-ethoxy]-acetyl)2-(γ-Glu)-(11-(4-carboxyphenoxy)undecanoyl)GGPSSGAPPPS-NH2)
B10: Example 290 (peptide)
peptide: B4 peptide with K10X, X11S, E28K
modifications: Y-Aib-EGT-αMeF(2F)-TSD-OMeY-SI-αMeL-LD-Orn-K((2-[2-(2-Amino-ethoxy)-ethoxy]-acetyl)2-(γ-Glu)-CO-(CH2)10-CH3)AQ-Aib-EFI-(D-Glu)-αMeY-LIK((2-[2-(2-Amino-ethoxy)-ethoxy]-acetyl)2-(γ-Glu)-CO-(CH2)10-CH3)GGPSSGAPPPS-NH2
B11: Example 289 (peptide)
peptide: B4 peptide with K10X, X11S, E21K
modifications: Y-Aib-EGT-αMeF(2F)-TSD-OMeY-SI-αMeL-LD-Orn-K((2-[2-(2-Amino-ethoxy)-ethoxy]-acetyl)2-(γ-Glu)-CO-(CH2)10-CH3)AQ-Aib-K((2-[2-(2-Amino-ethoxy)-ethoxy]-acetyl)2-(γ-Glu)-CO-(CH2)10-CH3)FI-(D-Glu)-αMeY-LIEGGPSSGAPPPS-NH2
B12: Example 328 (peptide)
peptide: B4 peptide with K10X, X11S, E28K
modifications: Y-Aib-EGT-αMeF(2F)-TSD-Nle-SI-αMeL-LD-Orn-K((2-[2-(2-Amino-ethoxy)-ethoxy]-acetyl)2-(γ-Glu)-(10-(4-carboxyphenoxy)decanoyl))AQ-Aib-EFI-(D-Glu)-αMeY-LIK((2-[2-(2-Amino-ethoxy)-ethoxy]-acetyl)2-(γ-Glu)-(10-(4-carboxyphenoxy)decanoyl))GGPSSGAPPPS-NH2
B13: Example 306 (peptide)
peptide: B4 peptide with K10X, K17I, X24K, E28K
modifications: Y-Aib-EGT-αMeF(2F)-TSD-4Pal-αMeS-I-αMeL-LD-Orn-IAQ-Aib-EFIK((2-[2-(2-Amino-ethoxy)-ethoxy]-acetyl)2-(γ-Glu)-(10-(4-carboxyphenoxy)decanoyl))-αMeY-LIK((2-[2-(2-Amino-ethoxy)-ethoxy]-acetyl)2-(γ-Glu)-(10-(4-carboxyphenoxy)decanoyl))GGPSSGAPPPS-NH2

What follows are binders tested against human GLP-1 receptor (human, UniProt P43220 24-463) (assay: cell-based or functional assay).

Binder | cAMP EC50 (1.0% HSA) [nM] | cAMP Emax (1.0% HSA) [%]
B1 | 70.4 | 
B2 | 7.43 | 
B3 | 29.5 | 
B4 | 4.35 | 
B5 | 13.6 | 
B6 | 9.52 | 
B7 | 20.2 | 98.2
B8 | 13.9 | 
B9 | 50.8 | 
B10 | 12.1 | 
B11 | 627 | 170
B12 | 23.3 | 
B13 | 18.2 | 

These binders were tested against T1, human GIP receptor (human, UniProt P48546 22-466) (assay: cell-based or functional assay).
T1 sequence (looked up): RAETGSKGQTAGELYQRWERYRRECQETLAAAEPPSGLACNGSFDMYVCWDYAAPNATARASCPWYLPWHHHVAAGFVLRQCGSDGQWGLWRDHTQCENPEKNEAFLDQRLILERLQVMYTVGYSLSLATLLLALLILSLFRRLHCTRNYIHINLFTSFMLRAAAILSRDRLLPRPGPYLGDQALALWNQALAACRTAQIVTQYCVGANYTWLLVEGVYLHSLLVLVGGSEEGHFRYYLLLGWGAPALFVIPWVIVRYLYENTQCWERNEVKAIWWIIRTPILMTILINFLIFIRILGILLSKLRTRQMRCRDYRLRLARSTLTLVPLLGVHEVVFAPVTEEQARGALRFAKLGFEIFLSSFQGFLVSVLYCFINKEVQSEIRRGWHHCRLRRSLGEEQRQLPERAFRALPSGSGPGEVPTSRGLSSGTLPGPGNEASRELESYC

Binder | cAMP EC50 (1.0% HSA) [nM] | cAMP Emax (1.0% HSA) [%]
B1 | 6.74 | 
B2 | 0.833 | 
B3 | 2.03 | 84.4
B4 | 0.416 | 
B5 | 1.04 | 
B6 | 0.694 | 
B7 | 2.38 | 90.2
B8 | 0.631 | 
B9 | 4.48 | 89.5
B10 | 0.878 | 
B11 | 3.11 | 
B12 | 0.75 | 
B13 | 1.12 | 

These binders were tested against human glucagon receptor (human, UniProt P47871 26-477) (assay: cell-based or functional assay).

Binder | cAMP EC50 (1.0% HSA) [nM]
B1 | > 9950
B2 | > 9950
B3 | > 9950
B4 | > 9950
B5 | > 9950
B6 | > 9950
B7 | > 9950
B8 | > 9950
B9 | > 9950
B10 | > 9950
B11 | > 9950
B12 | > 9950
B13 | > 9950

The binders below were run against hGLP-1R (Homo sapiens, UniProt P43220) (assay: cell-based or functional assay).

Binder | cAMP EC50 [nM] | cAMP Emax [%]
B4 | 0.0758 | 104

The binders below were run against human glucagon receptor (human) (UniProt P47871) (assay: cell-based or functional assay).

Binder | cAMP EC50 [nM]
B4 | > 9950

The binders below were run against T2, human GIP receptor (human) (UniProt P48546) (assay: cell-based or functional assay).
T2 sequence (looked up): T1 sequence (looked up)

Binder | cAMP EC50 [nM]
B4 | 0.0062

Source: US20230265151A1, “GIP/GLP1 CO-AGONIST COMPOUNDS” (priority 2020, published 2023)
